Molecular target: T1, N-terminally tagged soluble SARAF luminal domain, SP-XFP-SARAFL-R (SARAF(Δ165-339) with signal peptide and … (human, UniProt Q96BY9 31-164))
T1 sequence: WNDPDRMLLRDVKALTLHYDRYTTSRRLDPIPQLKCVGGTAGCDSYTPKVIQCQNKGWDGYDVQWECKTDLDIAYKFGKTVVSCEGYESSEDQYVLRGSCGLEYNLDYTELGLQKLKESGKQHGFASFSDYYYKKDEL
Test: FRET or BRET

- FRET signal, fold over the pair with both fluorophores at the N-terminus: ~3 fold
B1: C-terminally tagged soluble SARAF luminal domain, SP-SARAFL-XFP-R (domain or fragment, human)
chain: WNDPDRMLLRDVKALTLHYDRYTTSRRLDPIPQLKCVGGTAGCDSYTPKVIQCQNKGWDGYDVQWECKTDLDIAYKFGKTVVSCEGYESSEDQYVLRGSCGLEYNLDYTELGLQKLKESGKQHGFASFSDYYYKTGRPACKIPNDLKQKVMNHKDEL

Source: publication PMC6599547 (Journal of molecular biology, 2019)
